# pKd: −log10 of the molar value.
# How the values were obtained:
# MBP-ERS I212T (human) = assay: EMSA; conditions: 1 mM Mg2+; 5 ug/mL heparin (unit prefix not given); none (in vitro transcript); 25 mM Tris-HCl pH 7.5, 50 mM NaCl, 1 mM MgCl2, 1 mM DTT, 5 ug/mL heparin (prefix not given), 10 nM 32P-tRNA, room temperature 30 min; native 4-16% gel on …
# MBP-ERS M487V (human) = assay: EMSA; conditions: 1 mM Mg2+; 5 ug/mL heparin (unit prefix not given); none (in vitro transcript); 25 mM Tris-HCl pH 7.5, 50 mM NaCl, 1 mM MgCl2, 1 mM DTT, 5 ug/mL heparin (prefix not given), 10 nM 32P-tRNA, room temperature 30 min; native 4-16% gel on …
substance,measurement,setting,value
human tRNAGlu(TTC),pKd,MBP-ERS I212T (human),5.70
same,pKd,MBP-ERS M487V (human),5.92
